Broadly, the pKd is the negative decadic logarithm of the Kd, by convention in mol/L.

pKd: −log10 of the molar value.

Among the data in article PMC9505737 are Kd values, retold here.

Data set [1] relates to Immunoglobulin E (IgE), human myeloma (human). The data set can be described thus: NECEEM (CE-LIF). The settings on record: 25 nM DNA and 25 nM IgE, 10 mM Tris-HCl pH 9.0, no added salt in CE-LIF/NECEEM, temperature not stated.
Data set [2] shares this test system. The data set can be described thus: cited. The settings on record: 10 mM Tris-HCl pH 9.0, no added salt in CE-LIF/NECEEM; temperature not stated; cited from earlier work.

As for “GACTACCCGGGTATCTAATCCGACCATTTTTCGTCTCCTTTGTACGAGCAGTGTGCTCGACCTGCCGCCCGTAGG [S2]”, the pKd was 7.46 in data set [1] (alternative from both peaks, not adopted); 7.55 in data set [1] (alternative from sharp peak, not adopted); 8.81 in data set [1] (from broad peak (value adopted by authors)).
In the case of “GACTACCCGGGTATCTAATCCGCGTATGGTCATGGATGTGCATACACCCCGCCTATCAGAACTGCTGCCGCCCGTAGG [S1]”, the negative logarithm of the Kd (pKd) in data set [1] was 9.08.
As to “GACTACCCGGGTATCTAATCCTGAAACATAGCATATTTACTTATGTCGCCTTGCCGGTTCTGCTGCCGCCCGTAGG [FITC-IgE-Apt (published IgE aptamer)]”, the negative logarithm of the Kd (pKd) in data set [2] is 7.64.
